From US20090280138A1 (OXFORD BIOMEDICA UK, published 2009)

B1: 5T4 9-mer peptide 199 (EGYHYRYEI) (peptide)
peptide: EGYHYRYEI
B2: 5T4 9-mer peptide 161 (LTCAYPEKM) (peptide)
peptide: LTCAYPEKM
B3: 5T4 9-mer peptide 194 (NIRDACRDH) (peptide)
peptide: NIRDACRDH
B4: 5T4 9-mer peptide 150 (DCHMADMVT) (peptide)
peptide: DCHMADMVT
B5: 5T4 9-mer peptide 170 (SADLDCDPI) (peptide)
peptide: SADLDCDPI
B6: 5T4 9-mer peptide 158 (VQGKDRLTC) (peptide)
peptide: VQGKDRLTC
B7: 5T4 9-mer peptide 162 (CAYPEKMRN) (peptide)
peptide: CAYPEKMRN
B8: 5T4 9-mer peptide 180 (LGIVLALIG) (peptide)
peptide: LGIVLALIG
B9: 5T4 9-mer peptide 172 (DCDPILPPS) (peptide)
peptide: DCDPILPPS
B10: 5T4 9-mer peptide 152 (ADMVTWLKE) (peptide)
peptide: ADMVTWLKE
B11: 5T4 9-mer peptide 155 (LKETEVVQG) (peptide)
peptide: LKETEVVQG
B12: 5T4 9-mer peptide 190 (KGIKKWMHN) (peptide)
peptide: KGIKKWMHN
B13: 5T4 9-mer peptide 200 (YHYRYEINA) (peptide)
peptide: YHYRYEINA
B14: 5T4 9-mer peptide 168 (LELNSADLD) (peptide)
peptide: LELNSADLD
B15: 5T4 9-mer peptide 173 (DPILPPSLQ) (peptide)
peptide: DPILPPSLQ
B16: 5T4 9-mer peptide 184 (GAIFLLVLY) (peptide)
peptide: GAIFLLVLY
B17: 5T4 9-mer peptide 185 (IFLLVLYLN) (peptide)
peptide: IFLLVLYLN
B18: 5T4 9-mer peptide 171 (DLDCDPILP) (peptide)
peptide: DLDCDPILP
B19: 5T4 9-mer peptide 201 (YRYEINADP) (peptide)
peptide: YRYEINADP
B20: 5T4 9-mer peptide 196 (ACRDHMEGY) (peptide)
peptide: ACRDHMEGY
B21: 5T4 9-mer peptide 203 (INADPRLTN) (peptide)
peptide: INADPRLTN
B22: 5T4 9-mer peptide 169 (LNSADLDCD) (peptide)
peptide: LNSADLDCD
B23: 5T4 9-mer peptide 156 (ETEVVQGKD) (peptide)
peptide: ETEVVQGKD
B24: 5T4 9-mer peptide 160 (DRLTCAYPE) (peptide)
peptide: DRLTCAYPE
B25: 5T4 9-mer peptide 165 (MRNRVLLEL) (peptide)
peptide: MRNRVLLEL
B26: 5T4 9-mer peptide 197 (RDHMEGYHY) (peptide)
peptide: RDHMEGYHY
B27: 5T4 9-mer peptide 205 (PRLTNLSSN) (peptide)
peptide: PRLTNLSSN
B28: 5T4 9-mer peptide 159 (GKDRLTCAY) (peptide)
peptide: GKDRLTCAY

How the values were obtained:
Experiment in all cases: iTopia peptide binding assay
[1] = target: T1, MHC class I molecule B*0702 (biotin (bound to streptavidin-coated plate))
T1 construct: iTopia monomer stripped of placeholder peptide and b2M, then reconstituted with test peptide and fresh b2M; also called B7; HLA-B7
In short: (§1)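 In this kit-based ELISA, nonamer peptides are scored in duplicate for binding to plate-bound MHC under standardized optimal conditions, alongside allele-specific positive controls. Peptides classed as binders proceed to dissociation and affinity experiments.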

[2] = target: T2, MHC class I molecule A*0101 (biotin (bound to streptavidin-coated plate))
T2 construct: iTopia monomer stripped of placeholder peptide and b2M, then reconstituted with test peptide and fresh b2M; also called A1; HLA-A1
In short: as §1

[3] = target: T3, MHC class I molecule A*0201 (biotin (bound to streptavidin-coated plate))
T3 construct: iTopia monomer stripped of placeholder peptide and b2M, then reconstituted with test peptide and fresh b2M; also called A2; HLA-A2
In short: as §1

[4] = target: T4, MHC class I molecule A*0301 (biotin (bound to streptavidin-coated plate))
T4 construct: iTopia monomer stripped of placeholder peptide and b2M, then reconstituted with test peptide and fresh b2M; also called A3; HLA-A3
In short: as §1

Row | Binder | binding, % of positive control peptide [1] | binding, % of positive control peptide [2] | binding, % of positive control peptide [3] | binding, % of positive control peptide [4]
1 | B1 | 4 % of positive control | 0 % of positive control | 9 % of positive control | 0 % of positive control
2 | B2 | 6 % of positive control | 16 % of positive control | 40 % of positive control | 8 % of positive control
3 | B3 | 6 % of positive control | 0 % of positive control | 1 % of positive control | 0 % of positive control
4 | B4 | 5 % of positive control | 0 % of positive control | 7 % of positive control | 3 % of positive control
5 | B5 | 3 % of positive control | 0 % of positive control | 4 % of positive control | 4 % of positive control
6 | B6 | 6 % of positive control | 0 % of positive control | 4 % of positive control | 6 % of positive control
7 | B7 | 3 % of positive control | 0 % of positive control | 11 % of positive control | 4 % of positive control
8 | B8 | 0 % of positive control | 0 % of positive control | 10 % of positive control | 1 % of positive control
9 | B9 | 0 % of positive control | 0 % of positive control | 0 % of positive control | 3 % of positive control
10 | B10 | 8 % of positive control | 0 % of positive control | 6 % of positive control | 4 % of positive control
11 | B11 | 3 % of positive control | 0 % of positive control | 3 % of positive control | 4 % of positive control
12 | B12 | 6 % of positive control | 3 % of positive control | 14 % of positive control | 3 % of positive control
13 | B13 | 5 % of positive control | 0 % of positive control | 7 % of positive control | 1 % of positive control
14 | B14 | 3 % of positive control | 0 % of positive control | 3 % of positive control | 5 % of positive control
15 | B15 | 0 % of positive control | 0 % of positive control | 7 % of positive control | 4 % of positive control
16 | B16 | 0 % of positive control | 0 % of positive control | 5 % of positive control | 5 % of positive control
17 | B17 | 2 % of positive control | 0 % of positive control | 8 % of positive control | 0 % of positive control
18 | B18 | 3 % of positive control | 0 % of positive control | 0 % of positive control | 4 % of positive control
19 | B19 | 3 % of positive control | 0 % of positive control | 0 % of positive control | 1 % of positive control
20 | B20 | 7 % of positive control | 3 % of positive control | 8 % of positive control | 4 % of positive control
21 | B21 | 4 % of positive control | 0 % of positive control | 3 % of positive control | 1 % of positive control
22 | B22 | 0 % of positive control | 0 % of positive control | 0 % of positive control | 3 % of positive control
23 | B23 | 1 % of positive control | 0 % of positive control | 1 % of positive control | 3 % of positive control
24 | B24 | 3 % of positive control | 0 % of positive control | 6 % of positive control | 5 % of positive control
25 | B25 | 13 % of positive control | 0 % of positive control | 6 % of positive control | 4 % of positive control
26 | B26 | 5 % of positive control | 11 % of positive control | 6 % of positive control | 3 % of positive control
27 | B27 | 11 % of positive control | 2 % of positive control | 8 % of positive control | 2 % of positive control
28 | B28 | 4 % of positive control | 3 % of positive control | 6 % of positive control | 6 % of positive control
